The text below walks through data of patent US12384850 (SYSTIMMUNE, dated 2025).

The target in test [1] is T1, human 41BB (human, UniProt Q07011 24-255).
T1 construct: whole, on cells; also called 41BB expressing CHO cells; human 41BB transfected CHO cells
Kind of test: FACS on human 41BB transfected CHO cells. As for the experimental part:
(§1) Example 2: FACS Analysis of Tetra-Specific GNC Antibody Binding to Human 41BB Transfected CHO Cells The tetra-specific GNC antibodies listed in TABLEs 3 and 4 were tested for binding to Chinese hamster ovary cells (CHO) cells stably expressing a full-length human ROR1. Antibodies were prepared at 2× final concentration and titrated 1:5 across 3 wells of a 96 well plate in 50 ul of PBS/2% FBS and then 5,000 ROR1-CHO cells in 50 ul PBS/2% FBS were added. This mixture was incubated for 30 minutes on ice, washed once with 200 ul PBS/2% FBS, and then the secondary antibody PE Goat anti-Human IgG Fc at 1:1000 dilution of stock was added, and this mixture was incubated for 30 minutes on ice. Cells were washed 2×200 ul PBS/2% FBS, resuspended in 50 ul PBS/2% FBS and analyzed on a BD LSRFORTESSA and the binding profile is shown in FIG. 5. All of the tetra-specific GNC antibodies except for the control SI-27E12 contain a 41BB binding domain, 460C3, 420H5, or 466F6 and bound to 41BB expressing CHO cells with varying intensity.

In test [2] the target is T2, human PD-L1 (human, UniProt Q9NZQ7 19-290).
T2 construct: whole, on cells; also called PDL1 expressing CHO cells; human PD-L1 transfected CHO cells
Kind of test: FACS on human PD-L1 transfected CHO cells. As for the experimental part: as §1, with “3:” for “2:”, “PDL1” for “41BB”, “[…]” for “a full-length”, “6.” for “5. All of the tetra-specific GNC antibodies except for the control SI-27E12 contain a 41BB binding domain, 460C3, 420H5, or 466F6 and bound to 41BB expressing CHO cells with varying intensity.”

Test [3] has as its target T3, full-length human ROR1 (human, UniProt Q01973 30-937).
T3 construct: whole, on cells; also called human ROR1 transfected CHO cells; ROR1-CHO cells
The test can be described thus: FACS on CHO cells stably expressing full-length human ROR1. On the procedure: as §1, with “Example 1:” for “Example 2:”, “Tetra-Specific Specific” for “Tetra-Specific GNC”, “Human ROR1” for “Human 41BB”, “FIG. 4.” for “FIG. 5. All of the tetra-specific GNC antibodies except for the control SI-27E12 contain a 41BB binding domain, 460C3, 420H5, or 466F6 and bound to 41BB expressing CHO cells with varying intensity.”

T1 sequence (Q07011 24-255): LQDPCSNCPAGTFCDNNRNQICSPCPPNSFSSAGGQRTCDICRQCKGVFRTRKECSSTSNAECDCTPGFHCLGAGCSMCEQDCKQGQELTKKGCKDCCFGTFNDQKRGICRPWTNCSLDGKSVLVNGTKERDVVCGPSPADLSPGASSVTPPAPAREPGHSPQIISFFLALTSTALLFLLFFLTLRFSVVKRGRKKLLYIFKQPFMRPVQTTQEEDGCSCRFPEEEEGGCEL
T2 sequence (Q9NZQ7 19-290): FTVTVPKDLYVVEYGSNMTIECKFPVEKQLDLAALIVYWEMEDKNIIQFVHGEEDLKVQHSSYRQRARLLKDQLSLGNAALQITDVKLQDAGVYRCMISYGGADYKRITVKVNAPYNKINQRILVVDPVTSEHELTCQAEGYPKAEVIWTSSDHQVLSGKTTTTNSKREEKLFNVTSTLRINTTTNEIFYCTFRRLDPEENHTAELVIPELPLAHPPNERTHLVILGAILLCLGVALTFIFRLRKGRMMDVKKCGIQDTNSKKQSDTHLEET
T3 sequence (Q01973 30-937): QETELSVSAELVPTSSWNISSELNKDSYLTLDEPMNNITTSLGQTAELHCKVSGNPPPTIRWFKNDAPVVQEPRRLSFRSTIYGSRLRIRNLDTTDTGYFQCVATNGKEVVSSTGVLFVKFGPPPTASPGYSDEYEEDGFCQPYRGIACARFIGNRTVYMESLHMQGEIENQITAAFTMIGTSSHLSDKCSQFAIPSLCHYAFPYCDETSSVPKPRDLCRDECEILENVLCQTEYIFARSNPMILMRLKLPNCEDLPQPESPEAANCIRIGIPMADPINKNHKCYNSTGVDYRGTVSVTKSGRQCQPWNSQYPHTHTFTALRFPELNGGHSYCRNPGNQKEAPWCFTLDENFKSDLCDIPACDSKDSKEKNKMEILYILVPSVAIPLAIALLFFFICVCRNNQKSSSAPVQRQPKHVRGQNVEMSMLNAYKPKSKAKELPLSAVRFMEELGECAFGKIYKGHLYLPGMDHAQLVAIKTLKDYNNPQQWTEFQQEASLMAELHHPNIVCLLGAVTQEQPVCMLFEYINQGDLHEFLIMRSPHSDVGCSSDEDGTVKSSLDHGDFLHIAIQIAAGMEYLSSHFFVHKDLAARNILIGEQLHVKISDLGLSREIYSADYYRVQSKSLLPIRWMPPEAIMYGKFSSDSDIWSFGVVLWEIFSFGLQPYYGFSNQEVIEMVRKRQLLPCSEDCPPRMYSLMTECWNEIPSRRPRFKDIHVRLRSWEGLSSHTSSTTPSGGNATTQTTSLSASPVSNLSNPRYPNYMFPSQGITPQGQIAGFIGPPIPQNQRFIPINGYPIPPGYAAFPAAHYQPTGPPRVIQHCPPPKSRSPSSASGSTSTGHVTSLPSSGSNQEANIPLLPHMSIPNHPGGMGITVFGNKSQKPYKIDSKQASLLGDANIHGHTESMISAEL

B1: SI-35E18 (460C3-L1H1-scFv × PL230C6-Fab × 323H7-H4L1-scFv × 284A10-H1L1-scFv) (bispecific antibody, human IgG1, kappa)
heavy: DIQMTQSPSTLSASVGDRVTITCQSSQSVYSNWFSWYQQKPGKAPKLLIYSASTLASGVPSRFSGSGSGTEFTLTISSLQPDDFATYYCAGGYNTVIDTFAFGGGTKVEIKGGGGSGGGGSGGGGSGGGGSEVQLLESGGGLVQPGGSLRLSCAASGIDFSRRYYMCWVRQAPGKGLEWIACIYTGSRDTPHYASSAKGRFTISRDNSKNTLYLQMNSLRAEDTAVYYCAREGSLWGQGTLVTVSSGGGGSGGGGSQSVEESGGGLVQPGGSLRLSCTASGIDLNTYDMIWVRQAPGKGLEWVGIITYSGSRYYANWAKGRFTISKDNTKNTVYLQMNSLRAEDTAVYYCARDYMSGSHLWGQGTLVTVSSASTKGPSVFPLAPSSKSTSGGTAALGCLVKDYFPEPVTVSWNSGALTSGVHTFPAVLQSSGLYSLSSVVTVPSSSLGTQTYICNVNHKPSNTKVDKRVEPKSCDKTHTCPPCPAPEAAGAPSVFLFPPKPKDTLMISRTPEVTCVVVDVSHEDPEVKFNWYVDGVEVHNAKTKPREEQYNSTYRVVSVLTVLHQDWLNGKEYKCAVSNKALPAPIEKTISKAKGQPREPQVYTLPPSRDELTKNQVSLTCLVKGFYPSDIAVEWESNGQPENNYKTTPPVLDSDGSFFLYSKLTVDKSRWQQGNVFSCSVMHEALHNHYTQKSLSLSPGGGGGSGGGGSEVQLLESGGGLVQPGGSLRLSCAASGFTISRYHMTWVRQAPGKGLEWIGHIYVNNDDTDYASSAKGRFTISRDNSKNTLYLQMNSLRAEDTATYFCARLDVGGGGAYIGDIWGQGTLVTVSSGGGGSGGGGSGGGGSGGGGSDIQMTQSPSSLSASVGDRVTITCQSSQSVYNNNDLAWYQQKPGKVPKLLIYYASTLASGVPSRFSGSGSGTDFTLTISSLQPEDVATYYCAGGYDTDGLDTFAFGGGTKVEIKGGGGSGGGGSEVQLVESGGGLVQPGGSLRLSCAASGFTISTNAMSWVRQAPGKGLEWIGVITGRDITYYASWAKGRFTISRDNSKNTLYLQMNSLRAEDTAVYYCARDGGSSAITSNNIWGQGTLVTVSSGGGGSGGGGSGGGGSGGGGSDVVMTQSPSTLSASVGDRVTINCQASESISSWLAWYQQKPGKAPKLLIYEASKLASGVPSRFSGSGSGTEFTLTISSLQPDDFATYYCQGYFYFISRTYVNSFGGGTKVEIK
light: AYDMTQSPSSVSASVGDRVTIKCQASEDIYSFLAWYQQKPGKAPKLLIHSASSLASGVPSRFSGSGSGTDFTLTISSLQPEDFATYYCQQGYGKNNVDNAFGGGTKVEIKRTVAAPSVFIFPPSDEQLKSGTASVVCLLNNFYPREAKVQWKVDNALQSGNSQESVTEQDSKDSTYSLSSTLTLSKADYEKHKVYACEVTHQGLSSPVTKSFNRGEC
notes: Tetra-specific GNC antibody (41BB x PD-L1 x ROR1 x CD3), IgG1 null2 Fc
With B1, the binding result in test [1], in test [2] and in test [3] was “binds” throughout.

B2: SI-27E12 (bispecific antibody, not shown: small tags and cut ends)
heavy (part 1 of 7): DVVMTQTPLSLPVSLGDQASISCRSSQSLVHSNGNTYLRWYLQKPGQSPKVLIYKVSNRFSGVPDRFSGSGSGTDFTLKISRVEAEDLGVYFCSQSTHVPWTFGGGTKLEIK
heavy (part 2 of 7): EVKLDETGGGLVQPGRPMKLSCVASGFTFSDYWMNWVRQSPEKGLEWVAQIRNKPYNYETYYSDSVKGRFTISRDDSKSSVYLQMNNLRVEDMGIYYCTGSYYGMDYWGQGTSVTVSS
heavy (part 3 of 7): not shown
heavy (part 4 of 7): QSLVESGGGLVQPGGSLRLSCTASGFSLSRYYMTWVRQAPGKGLEWIGTIYTSGSTWYASWTKGRFTISKDNTKNTVDLQMNSLRAEDTAVYYCARSYYGGDKTGLGIWGQGTLVTVSS
heavy (part 5 of 7): DIQMTQSPSTLSASVGDRVTITCQASQSIDSWLSWYQQKPGKAPKLLIYQASTLASGVPSRFSGSGSGTEFTLTISSLQPDDFATYYCQSAYGVSGTSSYLYTFGGGTKVEIK
heavy (part 6 of 7): EVQLVESGGGLVQPGGSLRLSCAASGIDLSSNAMSWVRQAPGKGLEWIGVITGRDITYYASWAKGRFTISRDNSKNTLYLQMNSLRAEDTAVYYCARDGGSSAINSKNIWGQGTLVTVSS
heavy (part 7 of 7): DIQMTQSPSTLSASVGDRVTITCQASESISSWLAWYQQKPGKAPKLLIYEASKLASGVPSRFSGSGSGTEFTLTISSLQPDDFATYYCQGYFYFISRTYVNAFGGGTKVEIK
light: AYDMTQSPSSVSASVGDRVTIKCQASEDIYSFLAWYQQKPGKAPKLLIHSASSLASGVPSRFSGSGSGTDFTLTISSLQPEDFATYYCQQGYGKNNVDNAFGGGTKVEIKRTVAAPSVFIFPPSDEQLKSGTASVVCLLNNFYPREAKVQWKVDNALQSGNSQESVTEQDSKDSTYSLSSTLTLSKADYEKHKVYACEVTHQGLSSPVTKSFNRGEC
notes: the listing has only VHv3/VLv2; also called control SI-27E12
Regarding B2, the binding result in test [2] was “binds”.

B3: SI-27E13 (bispecific antibody, not shown: small tags and cut ends)
heavy (part 1 of 7): DIQMTQSPSTLSASVGDRVTITCQSSQSVYSNWFSWYQQKPGKAPKLLIYSASTLASGVPSRFSGSGSGTEFTLTISSLQPDDFATYYCAGGYNTVIDTFAFGGGTKVEIK
heavy (part 2 of 7): EVQLLESGGGLVQPGGSLRLSCAASGIDFSRRYYMCWVRQAPGKGLEWIACIYTGSRDTPHYASSAKGRFTISRDNSKNTLYLQMNSLRAEDTAVYYCAREGSLWGQGTLVTVSS
heavy (part 3 of 7): not shown
heavy (part 4 of 7): EVKLDETGGGLVQPGRPMKLSCVASGFTFSDYWMNWVRQSPEKGLEWVAQIRNKPYNYETYYSDSVKGRFTISRDDSKSSVYLQMNNLRVEDMGIYYCTGSYYGMDYWGQGTSVTVSS
heavy (part 5 of 7): DVVMTQTPLSLPVSLGDQASISCRSSQSLVHSNGNTYLRWYLQKPGQSPKVLIYKVSNRFSGVPDRFSGSGSGTDFTLKISRVEAEDLGVYFCSQSTHVPWTFGGGTKLEIK
heavy (part 6 of 7): EVQLVESGGGLVQPGGSLRLSCAASGIDLSSNAMSWVRQAPGKGLEWIGVITGRDITYYASWAKGRFTISRDNSKNTLYLQMNSLRAEDTAVYYCARDGGSSAINSKNIWGQGTLVTVSS
heavy (part 7 of 7): DIQMTQSPSTLSASVGDRVTITCQASESISSWLAWYQQKPGKAPKLLIYEASKLASGVPSRFSGSGSGTEFTLTISSLQPDDFATYYCQGYFYFISRTYVNAFGGGTKVEIK
light: AYDMTQSPSSVSASVGDRVTIKCQASEDIYSFLAWYQQKPGKAPKLLIHSASSLASGVPSRFSGSGSGTDFTLTISSLQPEDFATYYCQQGYGKNNVDNAFGGGTKVEIKRTVAAPSVFIFPPSDEQLKSGTASVVCLLNNFYPREAKVQWKVDNALQSGNSQESVTEQDSKDSTYSLSSTLTLSKADYEKHKVYACEVTHQGLSSPVTKSFNRGEC
notes: the listing has only VHv3/VLv2
In the case of B3, the binding result in test [1] and in test [2] was “binds” in each case.

B4: SI-35E2 (bispecific antibody, not shown: small tags and cut ends)
heavy (part 1 of 7): DIQMTQSPSTLSASVGDRVTITCQSSQSVYSNWFSWYQQKPGKAPKLLIYSASTLASGVPSRFSGSGSGTEFTLTISSLQPDDFATYYCAGGYNTVIDTFAFGGGTKVEIK
heavy (part 2 of 7): EVQLLESGGGLVQPGGSLRLSCAASGIDFSRRYYMCWVRQAPGKGLEWIACIYTGSRDTPHYASSAKGRFTISRDNSKNTLYLQMNSLRAEDTAVYYCAREGSLWGQGTLVTVSS
heavy (part 3 of 7): not shown
heavy (part 4 of 7): QSLVESGGGLVQPGGSLRLSCTASGFSLSRYYMTWVRQAPGKGLEWIGTIYTSGSTWYASWTKGRFTISKDNTKNTVDLQMNSLRAEDTAVYYCARSYYGGDKTGLGIWGQGTLVTVSS
heavy (part 5 of 7): DIQMTQSPSTLSASVGDRVTITCQASQSIDSWLSWYQQKPGKAPKLLIYQASTLASGVPSRFSGSGSGTEFTLTISSLQPDDFATYYCQSAYGVSGTSSYLYTFGGGTKVEIK
heavy (part 6 of 7): EVKLDETGGGLVQPGRPMKLSCVASGFTFSDYWMNWVRQSPEKGLEWVAQIRNKPYNYETYYSDSVKGRFTISRDDSKSSVYLQMNNLRVEDMGIYYCTGSYYGMDYWGQGTSVTVSS
heavy (part 7 of 7): DVVMTQTPLSLPVSLGDQASISCRSSQSLVHSNGNTYLRWYLQKPGQSPKVLIYKVSNRFSGVPDRFSGSGSGTDFTLKISRVEAEDLGVYFCSQSTHVPWTFGGGTKLEIK
light: AYDMTQSPSSVSASVGDRVTIKCQASEDIYSFLAWYQQKPGKAPKLLIHSASSLASGVPSRFSGSGSGTDFTLTISSLQPEDFATYYCQQGYGKNNVDNAFGGGTKVEIKRTVAAPSVFIFPPSDEQLKSGTASVVCLLNNFYPREAKVQWKVDNALQSGNSQESVTEQDSKDSTYSLSSTLTLSKADYEKHKVYACEVTHQGLSSPVTKSFNRGEC
notes: as for B3
Consider B4, for which the binding result in test [1] and in test [2] was “binds” each time.

B5: SI-27E15 (bispecific antibody, not shown: small tags and cut ends)
heavy (part 1 of 7): DIQMTQSPSTLSASVGDRVTITCQSSQSVYSNWFSWYQQKPGKAPKLLIYSASTLASGVPSRFSGSGSGTEFTLTISSLQPDDFATYYCAGGYNTVIDTFAFGGGTKVEIK
heavy (part 2 of 7): EVQLLESGGGLVQPGGSLRLSCAASGIDFSRRYYMCWVRQAPGKGLEWIACIYTGSRDTPHYASSAKGRFTISRDNSKNTLYLQMNSLRAEDTAVYYCAREGSLWGQGTLVTVSS
heavy (part 3 of 7): not shown
heavy (part 4 of 7): QSLVESGGGLVQPGGSLRLSCTASGFSLSRYYMTWVRQAPGKGLEWIGTIYTSGSTWYASWTKGRFTISKDNTKNTVDLQMNSLRAEDTAVYYCARSYYGGDKTGLGIWGQGTLVTVSS
heavy (part 5 of 7): DIQMTQSPSTLSASVGDRVTITCQASQSIDSWLSWYQQKPGKAPKLLIYQASTLASGVPSRFSGSGSGTEFTLTISSLQPDDFATYYCQSAYGVSGTSSYLYTFGGGTKVEIK
heavy (part 6 of 7): EVQLVESGGGLVQPGGSLRLSCAASGIDLSSNAMSWVRQAPGKGLEWIGVITGRDITYYASWAKGRFTISRDNSKNTLYLQMNSLRAEDTAVYYCARDGGSSAINSKNIWGQGTLVTVSS
heavy (part 7 of 7): DIQMTQSPSTLSASVGDRVTITCQASESISSWLAWYQQKPGKAPKLLIYEASKLASGVPSRFSGSGSGTEFTLTISSLQPDDFATYYCQGYFYFISRTYVNAFGGGTKVEIK
light: DVVMTQTPLSLPVSLGDQASISCRSSQSLVHSNGNTYLRWYLQKPGQSPKVLIYKVSNRFSGVPDRFSGSGSGTDFTLKISRVEAEDLGVYFCSQSTHVPWTFGGGTKLEIKRTVAAPSVFIFPPSDEQLKSGTASVVCLLNNFYPREAKVQWKVDNALQSGNSQESVTEQDSKDSTYSLSSTLTLSKADYEKHKVYACEVTHQGLSSPVTKSFNRGEC
notes: also called control SI-27E15
Turning to B5, the binding result in test [1] is given as “binds”.
